Data published in patent US9618524B2, “Method, composition, isolation and identification of a plaque particle and related biomarker” (Plaxgen Inc., priority 2012, dated 2017).

Columns and labels:
Assay in all cases: Mass spectroscopy proteomics, semi-quantitative binding affinity of serum proteins (plaqueproteome, Table 2)
Settings in all cases: higher number = stronger affinity
[1] = target: T1, Abeta-42 plaque particles (Homo sapiens, UniProt P05067)
T1 construct: Abeta 1-42
Outline: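 AD patient serum or plasma (50% in PBS) was incubated with Abeta-42 aggregates (30 μg) for 1 h at 37 °C, then stained with Thioflavin S for 30 min. Labeled particles were FACS-sorted, trypsin/Lys-C digested overnight and analyzed by MS/MS. Sequest searched human UniProt; Scaffold/Protein Prophet validated the identifications.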

[2] = tested on: High Density cholesterol (Chl Large) plaque particles; parameters: species or system human
Outline: (§1)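 Read-out is MS/MS protein identification (Sequest, strict trypsin, 20 ppm parent tolerance; Scaffold probabilities) of serum proteins bound to flow-sorted cholesterol plaque particles. These particles formed when 50% atherosclerotic serum was incubated with 30 μg cholesterol aggregates for 1 hr at 37° C.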

[3] = tested on: Low density cholesterol (Chl small) plaque particles; parameters: species or system human
Outline: as §1

[4] = target: T2, alpha-synuclein plaque particles (Homo sapiens, UniProt P37840)
T2 construct: 140 amino acids polypeptide
Outline: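 AD-subject plasma or serum (800 μL of 50%) mixed with 30 μg preformed alpha-synuclein aggregates for 1 h at 37 °C; Thioflavin S-positive particles isolated by flow sorting. After reduction, acrylamide alkylation and overnight tryptic digestion, serum proteins identified by MS/MS with Sequest and Scaffold.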

Tau plaque particles = tested on: Tau plaque particles; parameters: species or system human
Outline: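 Synthetic Tau-74 and Tau-275 peptides (1 mg/mL PBS, 37° C, 2 h) aggregated; 30 μg aggregates incubated with 50% serum/plasma 1 h at 37° C, stained with Thioflavin S, and plaque particles sorted by flow cytometry. Bound proteins trypsin-digested and identified by MS/MS against human UniProt.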

B1: Histone H1.3 (protein)
chain: SETAPLAPTIPAPAEKTPVKKKAKKAGATAGKRKASGPPVSELITKAVAASKERSGVSLAALKKALAAAGYDVEKNNSRIKLGLKSLVSKGTLVQTKGTGASGSFKLNKKAASGEGKPKAKKAGAAKPRKPAGAAKKPKKVAGAATPKKSIKKTPKKVKKPATAAGTKKVAKSAKKVKTPQPKKAAKSPAKAKAPKPKAAKPKSGKPKVTKAKKAAPKKK
Semi-quantitative analysis of proteins binding to different plaque particles: Abeta-42 [1]: 2 | Semi-quantitative analysis of proteins binding to different plaque particles: Chl Large [2]: 0 | Semi-quantitative analysis of proteins binding to different plaque particles: Chl small [3]: 0 | Semi-quantitative analysis of proteins binding to different plaque particles: Synuclein [4]: 0 | Semi-quantitative analysis of proteins binding to different plaque particles: Tau (Tau plaque particles): 0

B2: Ig kappa chain V-I region BAN (protein)
chain: DIQMTQSPSSLSASVGDRVTITCRASQGISNYLAWFQQKPGKAPKSLIYAASSLQSGVPSKFSGSGSGTDFTLTISSLQPEDFATYYCQQYNSYP
Semi-quantitative analysis of proteins binding to different plaque particles: Abeta-42 [1]: 2 | Semi-quantitative analysis of proteins binding to different plaque particles: Chl Large [2]: 2 | Semi-quantitative analysis of proteins binding to different plaque particles: Chl small [3]: 1 | Semi-quantitative analysis of proteins binding to different plaque particles: Synuclein [4]: 1 | Semi-quantitative analysis of proteins binding to different plaque particles: Tau (Tau plaque particles): 2

B3: Isoform 1B of Desmocollin-1 (protein)
chain: RWAPIPASLMENSLGPFPQHVQQIQSDAAQNYTIFYSISGPGVDKEPFNLFYIEKDTGDIFCTRSIDREKYEQFALYGYATTADGYAPEYPLPLIIKIEDDNDNAPYFEHRVTIFTVPENCRSGTSVGKVTATDLDEPDTLHTRLKYKILQQIPDHPKHFSIHPDTGVITTTTPFLDREKCDTYQLIMEVRDMGGQPFGLFNTGTITISLEDENDNPPSFTETSYVTEVEENRIDVEILRMKVQDQDLPNTPHSKAVYKILQGNENGNFIISTDPNTNEGVLCVVKPLNYEVNRQVILQVGVINEAQFSKAASSQTPTMCTTTVTVKIIDSDEGPECHPPVKVIQSQDGFPAGQELLGYKALDPEISSGEGLRYQKLGDEDNWFEINQHTGDLRTLKVLDRESKFVKNNQYNISVVAVDAVGRSCTGTLVVHLDDYNDHAPQIDKEVTICQNNEDFAVLKPVDPDGPENGPPFQFFLDNSASKNWNIEEKDGKTAILRQRQNLDYNYYSVPIQIKDRHGLVATHMLTVRVCDCSTPSECRMKDKSTRDVRPNVILGRWAILAMVLGSVLLLCILFTCFCVTAKRTVKKCFPEDIAQQNLIVSNTEGPGEEVTEANIRLPMQTSNICDTSMSVGTVGGQGIKTQQSFEMVKGGYTLDSNKGGGHQTLESVKGVGQGDTGRYAYTDWQSFTQPRLGEESIRGHTLIKN
Semi-quantitative analysis of proteins binding to different plaque particles: Abeta-42 [1]: 4 | Semi-quantitative analysis of proteins binding to different plaque particles: Chl Large [2]: 0 | Semi-quantitative analysis of proteins binding to different plaque particles: Chl small [3]: 0 | Semi-quantitative analysis of proteins binding to different plaque particles: Synuclein [4]: 0 | Semi-quantitative analysis of proteins binding to different plaque particles: Tau (Tau plaque particles): 0

B4: Caspase-14 (protein)
chain: MSNPRSLEEEKYDMSGARLALILCVTKAREGSEEDLDALEHMFRQLRFESTMKRDPTAEQFQEELEKFQQAIDSREDPVSCAFVVLMAHGREGFLKGEDGEMVKLENLFEALNNKNCQALRAKPKVYIIQACRGEQRDPGETVGGDEIVMVIKDSPQTIPTYTDALHVYSTVEGYIAYRHDQKGSCFIQTLVDVFTKRKGHILELLTEVTRRMAEAELVQEGKARKTNPEIQSTLRKRLYLQ
Semi-quantitative analysis of proteins binding to different plaque particles: Abeta-42 [1]: 5 | Semi-quantitative analysis of proteins binding to different plaque particles: Chl Large [2]: 0 | Semi-quantitative analysis of proteins binding to different plaque particles: Chl small [3]: 0 | Semi-quantitative analysis of proteins binding to different plaque particles: Synuclein [4]: 0 | Semi-quantitative analysis of proteins binding to different plaque particles: Tau (Tau plaque particles): 0

B5: Isoform 2 of Arginase-1 (protein)
chain: MSAKSRTIGIIGAPFSKGQPRGGVEEGPTVLRKAGLLEKLKEQVTQNFLILECDVKDYGDLPFADIPNDSPFQIVKNPRSVGKASEQLAGKVAEVKKNGRISLVLGGDHSLAIGSISGHARVHPDLGVIWVDAHTDINTPLTTTSGNLHGQPVSFLLKELKGKIPDVPGFSWVTPCISAKDIVYIGLRDVDPGEHYILKTLGIKYFSMTEVDRLGIGKVMEETLSYLLGRKKRPIHLSFDVDGLDPSFTPATGTPVVGGLTYREGLYITEEIYKTGLLSGLDIMEVNPSLGKTPEEVTRTVNTAVAITLACFGLAREGNHKPIDYLNPPK
Semi-quantitative analysis of proteins binding to different plaque particles: Abeta-42 [1]: 2 | Semi-quantitative analysis of proteins binding to different plaque particles: Chl Large [2]: 0 | Semi-quantitative analysis of proteins binding to different plaque particles: Chl small [3]: 0 | Semi-quantitative analysis of proteins binding to different plaque particles: Synuclein [4]: 0 | Semi-quantitative analysis of proteins binding to different plaque particles: Tau (Tau plaque particles): 0

B6: Galectin-3-binding protein (protein)
chain: VNDGDMRLADGGATNQGRVEIFYRGQWGTVCDNLWDLTDASVVCRALGFENATQALGRAAFGQGSGPIMLDEVQCTGTEASLADCKSLGWLKSNCRHERDAGVVCTNETRSTHTLDLSRELSEALGQIFDSQRGCDLSISVNVQGEDALGFCGHTVILTANLEAQALWKEPGSNVTMSVDAECVPMVRDLLRYFYSRRIDITLSSVKCFHKLASAYGARQLQGYCASLFAILLPQDPSFQMPLDLYAYAVATGDALLEKLCLQFLAWNFEALTQAEAWPSVPTDLLQLLLPRSDLAVPSELALLKAVDTWSWGERASHEEVEGLVEKIRFPMMLPEELFELQFNLSLYWSHEALFQKKTLQALEFHTVPFQLLARYKGLNLTEDTYKPRIYTSPTWSAFVTDSSWSARKSQLVYQSRRGPLVKYSSDYFQAPSDYRYYPYQSFQTPQHPSFLFQDKRVSWSLVYLPTIQSCWNYGFSCSSDELPVLGLTKSGGSDRTIAYENKALMLCEGLFVADVTDFEGWKAAIPSALDTNSSKSTSSFPCPAGHFNGFRTVIRPFYLTNSSGVD
Semi-quantitative analysis of proteins binding to different plaque particles: Abeta-42 [1]: 0 | Semi-quantitative analysis of proteins binding to different plaque particles: Chl Large [2]: 1 | Semi-quantitative analysis of proteins binding to different plaque particles: Chl small [3]: 0 | Semi-quantitative analysis of proteins binding to different plaque particles: Synuclein [4]: 0 | Semi-quantitative analysis of proteins binding to different plaque particles: Tau (Tau plaque particles): 0

B7: Complement factor H-related protein 1 (protein)
chain: EATFCDFPKINHGILYDEEKYKPFSQVPTGEVFYYSCEYNFVSPSKSFWTRITCTEEGWSPTPKCLRLCFFPFVENGHSESSGQTHLEGDTVQIICNTGYRLQNNENNISCVERGWSTPPKCRSTDTSCVNPPTVQNAHILSRQMSKYPSGERVRYECRSPYEMFGDEEVMCLNGNWTEPPQCKDSTGKCGPPPPIDNGDITSFPLSVYAPASSVEYQCQNLYQLEGNKRITCRNGQWSEPPKCLHPCVISREIMENYNIALRWTAKQKLYLRTGESAEFVCKRGYRLSSRSHTLRTTCWDGKLEYPTCAKR
Semi-quantitative analysis of proteins binding to different plaque particles: Abeta-42 [1]: 0 | Semi-quantitative analysis of proteins binding to different plaque particles: Chl Large [2]: 2 | Semi-quantitative analysis of proteins binding to different plaque particles: Chl small [3]: 1 | Semi-quantitative analysis of proteins binding to different plaque particles: Synuclein [4]: 0 | Semi-quantitative analysis of proteins binding to different plaque particles: Tau (Tau plaque particles): 1

B8: Coagulation factor XIII B chain (protein)
chain: EEKPCGFPHVENGRIAQYYYTFKSFYFPMSIDKKLSFFCLAGYTTESGRQEEQTTCTTEGWSPEPRCFKKCTKPDLSNGYISDVKLLYKIQENMRYGCASGYKTTGGKDEEVVQCLSDGWSSQPTCRKEHETCLAPELYNGNYSTTQKTFKVKDKVQYECATGYYTAGGKKTEEVECLTYGWSLTPKCTKLKCSSLRLIENGYFHPVKQTYEEGDVVQFFCHENYYLSGSDLIQCYNFGWYPESPVCEGRRNRCPPPPLPINSKIQTHSTTYRHGEIVHIECELNFEIHGSAEIRCEDGKWTEPPKCIEGQEKVACEEPPFIENGAANLHSKIYYNGDKVTYACKSGYLLHGSNEITCNRGKWTLPPECVENNENCKHPPVVMNGAVADGILASYATGSSVEYRCNEYYLLRGSKISRCEQGKWSSPPVCLEPCTVNVDYMNRNNIEMKWKYEGKVLHGDLIDFVCKQGYDLSPLTPLSELSVQCNRGEVKYPLCTRKESKGMCTSPPLIKHGVIISSTVDTYENGSSVEYRCFDHHFLEGSREAYCLDGMWTTPPLCLEPCTLSFTEMEKNNLLLKWDFDNRPHILHGEYIEFICRGDTYPAELYITGSILRMQCDRGQLKYPRCIPRQSTLSYQEPLRT
Semi-quantitative analysis of proteins binding to different plaque particles: Abeta-42 [1]: 0 | Semi-quantitative analysis of proteins binding to different plaque particles: Chl Large [2]: 0 | Semi-quantitative analysis of proteins binding to different plaque particles: Chl small [3]: 1 | Semi-quantitative analysis of proteins binding to different plaque particles: Synuclein [4]: 0 | Semi-quantitative analysis of proteins binding to different plaque particles: Tau (Tau plaque particles): 0
